Test results: the supplement of paper PMC10065799, “High-throughput profiling of sequence recognition by tyrosine kinases and SH2 domains using bacterial peptide display” (eLife, 2023)

Legend:
[1] = target: EPHB2 (UniProt P29323); assay: phosphorylation enrichment, bacterial display (enrichment ratio); higher = better substrate or ligand; peptides without Tyr show the background
[2] = target: Hck (UniProt P08631); assay: as above
[3] = target: FGFR3 (UniProt P22607); assay: as above
[4] = tested on: AncSZ; assay: as above
[5] = target: Jak2 (UniProt O60674); assay: as above
[6] = tested on: c-Abl (mouse); assay: as above
[7] = target: Fes (UniProt P07332); assay: as above
[8] = tested on: c-Src; assay: as above
[9] = target: Fyn (UniProt P06241); assay: as above
[10] = target: EPHB1 (UniProt P54762); assay: as above
[11] = target: FGFR1 (UniProt P11362); assay: as above
[12] = target: MERTK (UniProt Q12866); assay: as above
[13] = tested on: Fer (mouse); assay: as above
[14] = target: c-Src SH2; assay: SH2 binding enrichment of the phosphorylated peptide, bacterial display (enrichment ratio); higher = better substrate or ligand; peptides without Tyr show the background
[15] = target: Grb2 SH2 (UniProt P62993); assay: as above
[16] = target: SHP2-C SH2; assay: as above
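Wherever SH2 binding enrichment of the phosphorylated peptide, bacterial display is given: peptide library displayed on the E. coli surface as eCPX fusions, selected cells deep-sequenced, score is each peptide's frequency after selection divided by its frequency in the input.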
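Wherever phosphorylation enrichment, bacterial display is given: 11-residue human phosphosite peptides and single-mutation variants displayed on the E. coli surface, counted by deep sequencing, each peptide's frequency after selection divided by its frequency in the unselected input library; frequency after pTyr selection over input frequency; kinase dosed for 20-30% of maximal phosphorylation in three min.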

FGFR3, sequence (P22607 whole entry, looked up): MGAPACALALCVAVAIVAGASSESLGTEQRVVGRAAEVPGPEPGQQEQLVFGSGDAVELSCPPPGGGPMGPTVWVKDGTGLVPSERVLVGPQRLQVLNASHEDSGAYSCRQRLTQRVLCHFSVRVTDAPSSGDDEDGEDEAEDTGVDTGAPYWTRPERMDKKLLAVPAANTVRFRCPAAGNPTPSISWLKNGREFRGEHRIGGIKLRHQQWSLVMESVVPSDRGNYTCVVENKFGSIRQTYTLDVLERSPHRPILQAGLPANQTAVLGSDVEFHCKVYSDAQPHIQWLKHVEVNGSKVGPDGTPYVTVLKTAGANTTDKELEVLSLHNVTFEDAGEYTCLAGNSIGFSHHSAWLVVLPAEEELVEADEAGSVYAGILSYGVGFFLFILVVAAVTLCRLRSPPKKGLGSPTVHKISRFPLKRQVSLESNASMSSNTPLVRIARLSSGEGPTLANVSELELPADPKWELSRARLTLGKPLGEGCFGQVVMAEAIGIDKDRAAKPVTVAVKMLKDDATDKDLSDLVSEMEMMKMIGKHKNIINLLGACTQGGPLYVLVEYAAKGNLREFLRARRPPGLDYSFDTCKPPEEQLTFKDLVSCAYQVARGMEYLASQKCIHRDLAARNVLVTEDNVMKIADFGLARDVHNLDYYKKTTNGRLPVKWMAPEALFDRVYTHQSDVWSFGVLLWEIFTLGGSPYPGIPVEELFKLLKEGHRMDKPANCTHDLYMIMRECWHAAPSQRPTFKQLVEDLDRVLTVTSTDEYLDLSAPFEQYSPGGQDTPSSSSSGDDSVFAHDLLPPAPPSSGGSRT
EPHB1, sequence (P54762 whole entry, looked up): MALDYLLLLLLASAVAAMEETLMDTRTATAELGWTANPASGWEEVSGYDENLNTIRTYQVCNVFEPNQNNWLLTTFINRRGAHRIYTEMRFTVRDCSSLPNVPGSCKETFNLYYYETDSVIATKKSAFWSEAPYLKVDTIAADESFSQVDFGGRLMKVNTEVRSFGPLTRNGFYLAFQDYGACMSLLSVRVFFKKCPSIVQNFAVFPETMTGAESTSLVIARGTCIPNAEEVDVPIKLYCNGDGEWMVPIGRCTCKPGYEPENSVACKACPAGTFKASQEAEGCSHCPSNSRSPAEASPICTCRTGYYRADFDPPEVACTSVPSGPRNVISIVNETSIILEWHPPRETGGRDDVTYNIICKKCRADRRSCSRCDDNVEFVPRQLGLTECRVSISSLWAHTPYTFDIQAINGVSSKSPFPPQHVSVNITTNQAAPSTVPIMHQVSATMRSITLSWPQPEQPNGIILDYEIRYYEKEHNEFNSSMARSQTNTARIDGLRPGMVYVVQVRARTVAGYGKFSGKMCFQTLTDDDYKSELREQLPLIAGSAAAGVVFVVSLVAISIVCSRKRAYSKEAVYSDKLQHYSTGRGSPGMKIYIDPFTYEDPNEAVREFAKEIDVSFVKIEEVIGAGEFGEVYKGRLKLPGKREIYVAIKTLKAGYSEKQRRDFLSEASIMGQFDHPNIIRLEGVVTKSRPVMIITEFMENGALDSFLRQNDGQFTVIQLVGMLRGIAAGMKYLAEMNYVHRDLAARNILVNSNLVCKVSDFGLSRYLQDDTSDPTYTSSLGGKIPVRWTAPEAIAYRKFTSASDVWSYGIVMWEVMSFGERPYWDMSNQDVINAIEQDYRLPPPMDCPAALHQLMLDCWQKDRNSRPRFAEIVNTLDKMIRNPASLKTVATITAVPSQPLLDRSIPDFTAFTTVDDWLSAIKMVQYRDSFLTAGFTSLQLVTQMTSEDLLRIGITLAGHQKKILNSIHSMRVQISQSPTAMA
MERTK, sequence (Q12866 whole entry, looked up): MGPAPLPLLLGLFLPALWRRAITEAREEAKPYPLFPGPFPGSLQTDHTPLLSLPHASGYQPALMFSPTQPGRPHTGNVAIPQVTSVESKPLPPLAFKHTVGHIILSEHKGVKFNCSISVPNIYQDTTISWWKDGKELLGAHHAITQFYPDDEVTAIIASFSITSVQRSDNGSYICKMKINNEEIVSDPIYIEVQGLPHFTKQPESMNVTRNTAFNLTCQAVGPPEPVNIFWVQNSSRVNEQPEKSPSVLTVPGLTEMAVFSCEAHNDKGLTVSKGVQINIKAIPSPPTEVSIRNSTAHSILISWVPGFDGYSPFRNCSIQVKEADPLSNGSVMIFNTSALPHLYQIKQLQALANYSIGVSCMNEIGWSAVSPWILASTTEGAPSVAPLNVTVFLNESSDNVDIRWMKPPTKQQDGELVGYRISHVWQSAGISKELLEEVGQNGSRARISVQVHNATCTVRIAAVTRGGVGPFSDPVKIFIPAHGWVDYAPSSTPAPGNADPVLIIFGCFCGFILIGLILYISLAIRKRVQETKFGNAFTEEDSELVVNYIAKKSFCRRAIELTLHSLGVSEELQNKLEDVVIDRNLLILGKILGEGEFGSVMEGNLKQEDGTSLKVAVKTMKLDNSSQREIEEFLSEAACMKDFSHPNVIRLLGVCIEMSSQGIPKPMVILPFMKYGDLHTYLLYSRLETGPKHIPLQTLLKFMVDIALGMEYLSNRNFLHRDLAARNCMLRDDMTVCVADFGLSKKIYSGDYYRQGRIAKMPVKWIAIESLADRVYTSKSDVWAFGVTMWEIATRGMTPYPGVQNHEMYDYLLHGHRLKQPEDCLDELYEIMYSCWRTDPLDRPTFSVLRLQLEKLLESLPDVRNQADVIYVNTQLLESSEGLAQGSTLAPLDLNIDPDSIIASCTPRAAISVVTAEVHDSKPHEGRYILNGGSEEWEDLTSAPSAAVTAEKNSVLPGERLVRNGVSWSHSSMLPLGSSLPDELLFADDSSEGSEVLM
Hck, sequence (P08631 whole entry, looked up): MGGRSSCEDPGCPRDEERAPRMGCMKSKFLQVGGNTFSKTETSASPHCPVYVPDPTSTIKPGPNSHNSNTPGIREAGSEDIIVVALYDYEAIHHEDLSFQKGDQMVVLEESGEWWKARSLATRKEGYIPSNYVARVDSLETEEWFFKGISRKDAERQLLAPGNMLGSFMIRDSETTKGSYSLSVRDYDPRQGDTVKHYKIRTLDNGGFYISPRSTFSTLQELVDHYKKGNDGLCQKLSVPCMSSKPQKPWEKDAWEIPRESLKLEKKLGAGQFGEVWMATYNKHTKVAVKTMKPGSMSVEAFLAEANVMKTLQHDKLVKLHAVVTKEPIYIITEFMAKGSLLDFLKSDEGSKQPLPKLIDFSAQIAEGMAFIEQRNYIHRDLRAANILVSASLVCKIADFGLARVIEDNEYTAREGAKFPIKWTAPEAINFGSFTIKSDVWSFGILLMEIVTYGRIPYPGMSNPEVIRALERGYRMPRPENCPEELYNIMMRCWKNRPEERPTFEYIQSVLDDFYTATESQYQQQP
Fyn, sequence (P06241 whole entry, looked up): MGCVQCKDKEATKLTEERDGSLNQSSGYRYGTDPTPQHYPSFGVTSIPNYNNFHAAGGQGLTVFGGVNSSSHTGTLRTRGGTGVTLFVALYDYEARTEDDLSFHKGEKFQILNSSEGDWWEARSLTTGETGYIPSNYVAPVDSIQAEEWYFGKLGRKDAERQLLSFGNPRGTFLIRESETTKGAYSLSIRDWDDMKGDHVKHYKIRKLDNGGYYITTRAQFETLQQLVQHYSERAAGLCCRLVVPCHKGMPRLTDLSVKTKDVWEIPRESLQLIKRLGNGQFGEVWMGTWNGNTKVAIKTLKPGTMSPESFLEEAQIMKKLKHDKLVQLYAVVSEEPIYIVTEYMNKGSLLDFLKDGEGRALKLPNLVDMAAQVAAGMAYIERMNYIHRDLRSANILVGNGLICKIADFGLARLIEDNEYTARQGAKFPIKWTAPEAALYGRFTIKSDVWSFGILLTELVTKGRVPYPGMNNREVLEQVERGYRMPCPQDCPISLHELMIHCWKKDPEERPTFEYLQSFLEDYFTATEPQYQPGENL
EPHB2, sequence (P29323 whole entry, looked up): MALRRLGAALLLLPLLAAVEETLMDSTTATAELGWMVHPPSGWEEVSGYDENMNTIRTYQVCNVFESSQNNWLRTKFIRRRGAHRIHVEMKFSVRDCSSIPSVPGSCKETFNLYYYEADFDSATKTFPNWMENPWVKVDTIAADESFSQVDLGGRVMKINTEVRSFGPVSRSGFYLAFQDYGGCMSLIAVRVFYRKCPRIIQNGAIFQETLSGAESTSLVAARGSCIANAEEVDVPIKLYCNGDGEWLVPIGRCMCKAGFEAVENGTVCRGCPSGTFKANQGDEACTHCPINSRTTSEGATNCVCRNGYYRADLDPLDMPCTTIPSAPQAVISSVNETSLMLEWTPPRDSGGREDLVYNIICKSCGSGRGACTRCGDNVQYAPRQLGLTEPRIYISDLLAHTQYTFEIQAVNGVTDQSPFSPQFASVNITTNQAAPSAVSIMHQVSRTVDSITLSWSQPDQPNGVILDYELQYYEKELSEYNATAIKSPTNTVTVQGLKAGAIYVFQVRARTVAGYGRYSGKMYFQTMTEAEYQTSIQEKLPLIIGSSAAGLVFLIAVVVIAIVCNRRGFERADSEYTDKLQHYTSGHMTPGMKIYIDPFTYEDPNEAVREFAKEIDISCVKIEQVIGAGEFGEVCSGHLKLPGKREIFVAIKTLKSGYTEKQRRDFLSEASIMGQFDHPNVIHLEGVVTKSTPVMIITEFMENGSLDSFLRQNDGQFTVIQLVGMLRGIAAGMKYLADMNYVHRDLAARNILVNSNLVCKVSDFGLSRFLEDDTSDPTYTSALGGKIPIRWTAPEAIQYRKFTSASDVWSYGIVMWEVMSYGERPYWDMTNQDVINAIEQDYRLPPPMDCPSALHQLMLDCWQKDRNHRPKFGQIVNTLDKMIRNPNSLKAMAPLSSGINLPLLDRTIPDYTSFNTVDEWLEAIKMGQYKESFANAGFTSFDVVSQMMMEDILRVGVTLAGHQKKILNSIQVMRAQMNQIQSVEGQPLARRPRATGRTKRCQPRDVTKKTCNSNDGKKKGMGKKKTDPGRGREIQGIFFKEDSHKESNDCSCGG

Row | SH2 binding enrichment [14] | SH2 binding enrichment [15] | SH2 binding enrichment [16] | Sequence | phosphorylation enrichment [1] | phosphorylation enrichment [2] | phosphorylation enrichment [3] | phosphorylation enrichment [4] | phosphorylation enrichment [5] | phosphorylation enrichment [6] | phosphorylation enrichment [7] | phosphorylation enrichment [8] | phosphorylation enrichment [9] | phosphorylation enrichment [10] | phosphorylation enrichment [11] | phosphorylation enrichment [12] | phosphorylation enrichment [13]
1 | 2.23 | 1.37 | 1.51 | CATIHYNFMCN [TP53_Y234_T230A_YF] | 0.52 | 0.577 | 0.596 | 0.993 | 0.903 | 0.757 | 0.944 | 0.525 | 0.478 | 0.68 | 0.634 | 0.497 | 0.602
2 | 0.367 | 0.908 | 0.653 | QEGPEYWDGNT [HLA-B_Y83_R86G] | 0.959 | 0.833 | 1.56 | 1.93 | 1.98 | 1.08 | 1.97 | 0.854 | 0.548 | 0.762 | 1.11 | 0.709 | 0.533
3 | 2.24 | 0.777 | 3 | SSVAGYACLAY [MVD_Y131_A128V] | 0.582 | 0.538 | 0.701 | 0.898 | 0.852 | 0.768 | 0.994 | 0.554 | 0.466 | 0.564 | 0.495 | 0.463 | 0.587
4 | 0.475 | 0.717 | 0.629 | ITRDEYPSNPM [CEMIP2_Y1015] | 0.369 | 0.352 | 0.467 | 0.688 | 0.497 | 0.414 | 0.589 | 0.345 | 0.413 | 0.413 | 0.426 | 0.329 | 0.344
5 | 0.739 | 1.18 | 0.863 | KQFWRYFPGNL [SLC25A4_Y112_A114P] | 0.521 | 0.524 | 0.676 | 0.904 | 0.919 | 0.695 | 1.02 | 0.496 | 0.35 | 0.625 | 0.444 | 0.402 | 0.469
6 | 0.501 | 0.68 | 0.759 | FFDANYDGKEF [MAPRE2_Y162_YF] | 0.666 | 0.601 | 0.695 | 1.11 | 0.957 | 0.611 | 1.42 | 0.443 | 0.529 | 0.558 | 0.824 | 0.424 | 0.446
7 | 0.583 | 0.722 | 0.568 | RRIHCYRGHLW [VHL_Y112_S111C] | 0.524 | 0.483 | 0.56 | 0.626 | 0.702 | 0.527 | 1.17 | 0.62 | 0.465 | 0.49 | 0.475 | 0.556 | 0.66
8 | 0.43 | 0.816 | 0.721 | SSQAHYRLSAF [ADAMTS9_Y100] | 0.426 | 0.434 | 0.584 | 0.65 | 0.482 | 0.481 | 0.584 | 0.41 | 0.449 | 0.452 | 0.399 | 0.368 | 0.347
9 | 1.06 | 1.17 | 1.12 | NKKYHYRELPV [ERN2_Y860_H858Y] | 0.278 | 0.29 | 0.345 | 0.456 | 0.379 | 0.515 | 0.502 | 0.32 | 0.296 | 0.361 | 0.316 | 0.28 | 0.32
10 | 0.466 | 0.827 | 0.695 | PSALGYSPSLH [LLGL2_Y40_R45H] | 0.436 | 0.432 | 0.553 | 0.639 | 0.71 | 0.864 | 0.823 | 0.631 | 0.458 | 0.573 | 0.48 | 0.621 | 0.444
11 | 0.874 | 1.11 | 1.18 | CTTIHYNYMWN [TP53_Y234_C238W] | 0.746 | 0.544 | 0.976 | 1.21 | 0.966 | 0.824 | 1.32 | 0.496 | 0.569 | 1.12 | 1.21 | 1.82 | 1.77
12 | 1.05 | 0.911 | 0.968 | VPLLEYYRDIF [CDAN1_Y712] | 0.647 | 0.508 | 2.83 | 0.998 | 2.64 | 0.728 | 1.24 | 0.553 | 0.444 | 0.564 | 3.63 | 0.441 | 0.544
13 | 0.488 | 0.8 | 0.787 | DLDPNYVVSSR [CKM_Y125_L127V] | 0.546 | 0.573 | 0.69 | 1.17 | 0.843 | 0.713 | 0.943 | 0.46 | 0.45 | 0.561 | 0.539 | 0.453 | 0.494
14 | 1.94 | 0.667 | 0.621 | SSSAIYDNPDL [DCP1B_Y191_N195D] | 10.9 | 5.17 | 0.651 | 1.29 | 0.914 | 9.33 | 1.07 | 2.7 | 3.81 | 7.52 | 0.519 | 5.29 | 6.58
15 | 0.542 | 0.985 | 0.648 | LSVEIYDRREF [ITGB7_Y753_YF] | 0.483 | 2.83 | 0.824 | 1.26 | 0.958 | 0.569 | 1.25 | 1.01 | 0.946 | 0.428 | 0.498 | 0.522 | 0.595
16 | 0.524 | 1.39 | 0.841 | VLTSKYRGGGG [HBA1_Y141] | 0.278 | 0.563 | 0.468 | 0.386 | 0.454 | 0.494 | 0.911 | 0.435 | 0.366 | 0.475 | 0.332 | 0.556 | 0.374
17 | 0.753 | 0.847 | 0.713 | NFRRGYHLQVL [CD200R1L_Y138_H135R] | 0.473 | 0.386 | 0.528 | 0.621 | 0.528 | 0.486 | 0.699 | 0.38 | 0.416 | 0.379 | 0.462 | 0.394 | 0.439

Row | SH2 binding enrichment [14] | SH2 binding enrichment [15] | SH2 binding enrichment [16] | Sequence | phosphorylation enrichment [1] | phosphorylation enrichment [2] | phosphorylation enrichment [3] | phosphorylation enrichment [4] | phosphorylation enrichment [5] | phosphorylation enrichment [6] | phosphorylation enrichment [7] | phosphorylation enrichment [8] | phosphorylation enrichment [9] | phosphorylation enrichment [10] | phosphorylation enrichment [11] | phosphorylation enrichment [12] | phosphorylation enrichment [13]
18 | 0.536 | 0.972 | 0.67 | VRVQLYDPDFM [CYP4A22_Y100_Y104F] | 0.631 | 0.561 | 0.683 | 1.06 | 1.07 | 0.734 | 1.17 | 0.579 | 0.419 | 0.717 | 0.45 | 1.08 | 0.579
19 | 0.59 | 0.683 | 0.885 | LSSLAYSGKDA [FXN_Y205] | 0.702 | 0.579 | 0.671 | 0.859 | 0.75 | 0.85 | 0.703 | 0.47 | 0.809 | 0.819 | 0.66 | 0.307 | 0.615
20 | 0.403 | 0.767 | 0.753 | SREDIYKRNIE [PDE4DIP_Y45] | 0.553 | 0.603 | 0.585 | 0.659 | 0.7 | 0.654 | 0.81 | 0.405 | 0.591 | 0.422 | 0.5 | 0.366 | 0.431
21 | 1.28 | 1.05 | 2.91 | KYACSYTPVKA [FLNB_Y708_T703K] | 0.417 | 0.483 | 0.697 | 0.689 | 0.598 | 0.557 | 0.758 | 0.432 | 0.387 | 0.473 | 0.576 | 0.414 | 0.438
22 | 1.72 | 1.94 | 1.85 | KACKHYLTKRT [ZBTB5_Y118_T121K] | 0.662 | 0.582 | 1.19 | 0.667 | 1.3 | 1.05 | 1.17 | 0.581 | 0.595 | 0.493 | 0.629 | 0.605 | 0.668
23 | 0.527 | 0.803 | 0.85 | GRPLFYWLTGC [LYZL6_Y140] | 0.491 | 0.42 | 0.836 | 0.968 | 1.04 | 0.713 | 1.13 | 0.33 | 0.407 | 0.686 | 0.533 | 0.469 | 0.418
24 | 0.425 | 0.71 | 0.5 | RRVLVYRGRGA [QDPR_Y16_G17R] | 0.714 | 0.782 | 0.779 | 0.963 | 0.692 | 0.829 | 0.991 | 0.754 | 0.712 | 0.818 | 0.758 | 0.708 | 0.618
25 | 0.552 | 0.965 | 0.515 | LFEDRYLLGPS [ASS1_Y87_T91P_YF] | 0.872 | 0.804 | 1.12 | 1.07 | 1.73 | 1.07 | 1.42 | 0.689 | 0.793 | 0.857 | 0.679 | 0.58 | 0.634
26 | 0.499 | 0.786 | 0.467 | GDPTEYFITAI [IGSF22_Y501_S503I_YF] | 0.644 | 0.461 | 1.11 | 1.55 | 1.31 | 0.911 | 1.08 | 0.555 | 0.445 | 0.584 | 1.07 | 0.482 | 0.404
27 | 0.412 | 0.625 | 0.98 | TCFDKYTGNTF [FN1_Y101_YF] | 0.772 | 0.567 | 0.92 | 1.35 | 1.16 | 0.93 | 1.18 | 0.544 | 0.563 | 0.813 | 0.508 | 0.501 | 0.647
28 | 0.454 | 0.804 | 0.553 | RVQKRYILDNV [RCN1_Y115_F117L] | 0.234 | 0.366 | 0.327 | 0.494 | 0.487 | 0.384 | 0.463 | 0.409 | 0.372 | 0.176 | 0.326 | 0.367 | 0.337
29 | 0.574 | 0.762 | 0.582 | TINPIYEHVGY [CHN1_Y143] | 26.2 | 13.6 | 1.06 | 1.15 | 0.578 | 5.77 | 8.63 | 8.55 | 14.7 | 25.6 | 1.01 | 12.2 | 22.4
30 | 0.783 | 1.02 | 0.962 | LQLLGYRPVYS [CHST6_Y358] | 0.873 | 0.581 | 0.91 | 1.29 | 0.979 | 0.911 | 1.24 | 0.559 | 0.916 | 0.954 | 0.718 | 0.426 | 0.49
31 | 0.575 | 0.889 | 0.842 | KVDKECEVRVR [GHR_Y226_Y226C] | 0.569 | 0.414 | 0.556 | 0.739 | 0.821 | 0.638 | 0.832 | 0.446 | 0.421 | 0.513 | 0.502 | 0.355 | 0.478
32 | 0.69 | 0.699 | 0.712 | FAGRDYSLDEF [MYOF_Y1705_G1701A_YF] | 0.567 | 0.51 | 0.708 | 0.986 | 1.01 | 0.639 | 0.969 | 0.572 | 0.454 | 0.433 | 0.497 | 0.45 | 0.451
33 | 1.02 | 1.24 | 1.22 | VLALWYYYLTN [ZDHHC23_Y127_H132N] | 0.851 | 0.738 | 6.91 | 1.29 | 3.09 | 1.05 | 1.81 | 1.35 | 0.611 | 1.1 | 8.15 | 3.86 | 0.766
